Measurements published in the DeepSol protein solubility set.

Assay: soluble on expression in E. coli; label from the status in PepcDB or PDB records

| Sequence | soluble on expression in E. coli |
| --- | --- |
| MANPIKIGIGGPVGAGKTQLIEKVVKRLSKEMSIGVITNDIYTKEDEKILVNSGVLPESRIIGVETGGCPHTAIREDASMNFAAIDELLERHDDIELIFIESGGDNLAATFSPELVDFSIYIIDVAQGEKIPRKGGQGMIKSDFFVINKTDLAPYVGASLEQMAEDTKVFRGKRPFTFTNLKTDEGLDEVIDWIERDTLLKGLS | not soluble |
| MSTTVEKIKAIEDEMARTQKNKATSFHLGQLKAKLAKLRRELLTSASSGSGGGAGIGFDVARTGVASVGFVGFPSVGKSTLLSKLTGTESEAAEYEFTTLVTVPGVIRYKGAKIQMLDLPGIIDGAKDGRGRGKQVIAVARTCNLLFIILDVNKPLHHKQIIEKELEGVGIRLNKTPPDILIKKKEKGGISITNTVPLTHLGNDEIRAVMSEYRINSAEIAFRCDATVDDLIDVLEASSRRYMPAIYVLNKIDSLSIEELELLYRIPNAVPISSGQDWNLDELLQVMWDRLNLVRIYTKPKGQIPDFTDPVVLRSDRCSVKDFCNQIHKSLVDDFRNALVYGSSVKHQPQYVGLSHILEDEDVVTILKK | soluble |
| MLEQPYLDLAKKVLDEGHFKPDITHTGTYSIFGHQMRFDLSKGFPLLTTKKVPFGLIKSELLWFLHGDTNIRFLLQHRNHIWDEWAFEKWVKSDEYHGPDMTDFGHRSQKDPEFAAVYHEEMAKFDDRVLHDDAFAAKYGDLGLVYGSQWRAWHTSKGDTIDQLGDVIEQIKTHPYSRRLIVSAWNPEDVPTMALPPCHTLYQFYVNDGKLSLQLYQRSADIFLGVPFNIASYALLTHLVAHECGLEVGEFIHTFGDAHLYVNHLDQIKEQLSRTPRPAPTLQLNPDKHDIFDFDMKDIKLLNYDPYPAIKAPVAV | soluble |
| MSLIRAMQKSDYEAVYKLWCEIKGFGIRSIDDSKENIENFLDRNPNLSVVAVIDEEIVGSILCGHDGRTGGFYHVCVHKDHRKKGIAHEMAKFCLEALKAQKINKIALIAFKNNDLGNEFWKHYGFTLREDANYYDLSLNEYNQTSFNAEGHHHHHH | soluble |
| MGSDKIHHHHHHGKGQQPSEENEDPKAKEILQGIWLDDETETPLMRIIGDTIYYSDAQSAPVYFKILKDTLYTYGKDVTHYQIDKQSEYSFWFHSLADNIIKLHKSEDPNDTLAFSFKSVEIIPTYTEVTKKDSVVMFDGVRYRAYVYINPSQMKVVKTTYSEDGISMDNIYYDNVMHICVYEGKKSLYAKDITKQMFVDVIPTDFLQQAILSDMNFIGIDRKGYHYQALVCIPESPVCNLVNLTISFDGKLNITAAKYK | not soluble |
| MLPNNQWQIPINNGLTHQENMAAHAAVMKLRVHDLQSIISQLSLRKPRPQKSEHQKVVVESLRDPHHARQIYQMVISLIFSSLQASNFPNGNYEMQKRPATTSQVRSHPYVLPSRSGASNHLVNHHYQQQQQQQPQPHNLLHQQMMASHHSHLQQQHHPSTPKKMYADNFEPLPLPFYDVISVLLKPVELHSSDSPTLKQTKQLQFPFLLTAEHISKISYRADVTPLPRYELQLRFFNLTEPVQGPQKDDFPLNCYARVDDSVVQLPNVIPTNKTNAEPKRPSRPVNITSNMNRYKKEHTVAVEWLADKRVWAAGVYFVHRVNSDILFKRLNQNVSRHRSLEVTKQEVIKKLSGGEDDIAMDRLNISLLDPLCKTRMTTPSRCQDCTHLQCFDLLSYLMMNEKKPTWQCPVCSSNCPYDRLIVDDYFLDMLAKVDKNTTEVELKEDGSYDVIKEEAFCISDDDDDDVVPATVNGTASCSSTNGNGLANEAAKKKPADDDIITLSDDDDEELNRGIMNSLNDSFSPGRHTASAELAAQKTPPQQKKKTKDDDIEIITLDDTPPRPVAASANLPMRQMSQQNQMPVGSSPSGMASTQMGMNEGASKTIRDALNKIGEPMINQAPHFQMQNGLIGRNNQMVHMQQHHLQQQQQQQQSPQIMSPSFYAQQQMSNGGAFAYYPPQYPQQQYRQN | not soluble |
| MTPTIELICGHRSIRHFTDEPISEAQREAIINSARATSSSSFLQCSSIIRITDKALREELVTLTGGQKHVAQAAEFWVFCADFNRHLQICPDAQLGLAEQLLLGVVDTAMMAQNALIAAESLGLGGVYIGGLRNNIEAVTKLLKLPQHVLPLFGLCLGWPADNPDLKPRLPASILVHENSYQPLDKGALAQYDEQLAEYYLTRGSNNRRDTWSDHIRRTIIKESRPFILDYLHKQGWATR | soluble |
| RGSHHHHHHGSAVQVTFTVQKGSDPKKLVLDIKYTRPGDSLAEVELRQHGSEEWEPLTKKGNVWEVKSSKPLVGPFNFRFMSKGGMRNVFDEVIPTAFSIGKTYKPEE | soluble |
| MAEKRTVRPFAGTERRAKGWIQEAALRMLNNNLHPDVAERPDELIVYGGIGKAARNWECYEAIVDTLLRLENDETLLIQSGKPVAVFRTHPDAPRVLIANSNLVPAWATWDHFHELDKKGLIMYGQMTAGSWIYIGSQGIVQGTYETFAEVARQHFGGTLAGTITLTAGLGGMGGAQPLAVTMNGGVCLAIEVDPARIQRRIDTNYLDTMTDSLDAALEMAKQAKEEKKALSIGLVGNAAEVLPRLVETGFVPDVLTDQTSAHDPLNGYIPAGLTLDEAAELRARDPKQYIARAKQSIAAHVRAMLAMQKQGAVTFDYGNNIRQVAKDEGVDDAFSFPGFVPAYIRPLFCEGKGPFRWVALSGDPEDIYKTDEVILREFSDNERLCHWIRMAQKRIKFQGLPARICWLGYGERAKFGKIINDMVAKGELKAPIVIGRDHLDSGSVASPNRETEGMKDGSDAIADWPILNALLNAVGGASWVSVHHGGGVGMGYSIHAGMVIVADGTKEAEKRLERVLTTDPGLGVIRHADAGYELAIRTAKEKGIDMPMLK | soluble |
| DRFVYTCNECKHHVETRWHCTVCEDYDLCITCYNTKNHDHKM | not soluble |
| MVTLASHLDACPDAAIWGSSKTENLGVEKIIVNVISNSNIRYVLVCGTESRGHLAGHSLLAIHANGIDEQGRITGSQGAIPFIENISGTAVERFQQQVTVLNRIGLNDPEEIRRIVEDYRDKGEAYPEEPMLVCAPKKRQTSFAVPTSGDVIISGEFVMDSKAGIIYTAESL | not soluble |
| MGFQLRGDYLLDDDLQTLYVSSSDIHGELTRLVKLNLTRNQVNVLKHSKADVPELRILSDKLDRRTLSLFSNGQVAEYELIYSVHYQVRFTGEDARDFRFELYRDYQDDPNIALAKSRELSLLLSEMRTSAADKILRDLARIQRLEHHHHHH | soluble |
| MGPAKKKKKGKEKKFRRELGSWSAVELEKFIEYKAEDAGKKVIYINPKYSPQKCSRCGYVSKENRHDSVFKCKNCGFELNADLNASRNIEVIRVSEYFRLLSASQSLLFNETPLTGGAGDQRQAPKLLEHHHHHH | soluble |
| IDGIFIMDAEGHYLDVNPAICSAIGYTRDEFLALDWGVLSRGVDSGWAAASLARIVGGEPLREERTVWTRNGDQLTVELSAHLLPD | not soluble |
| MGSDKIHHHHHHMTLLLKENDVINLLDYKQIYGALVNAFLLFENKFAINLERSRISFHGTTLTFQAAGMENYIGYKTFISGNHLTFLYDTSGNLLSIIESDRLSQARTAVLSILATDYVYGDFSSLGVIGLGKYGLAIVEIANQLKKGIKINVFTPSQQRMEKALSILRGEGIDVSPKDSIKRVCEESEVVTTITKAKDPFLKLEYVNNKRIHINAMGSNIPEKIEIFPEVIKASNLIVVEELEHEFKRIRRVSHRKRMGMLDMSKITLLSWILSRKINVQKEGITIFKSVGIGLEDLAVGKLIYEKALSKGLGTEIEVKGVWYRESEKK | not soluble |
| MRNVDFSPLYRNAIGFDRLLNLMEANTAKNTSGGYPPYNIEQKDEHNYRITMAVAGFSEDQLDLTQNENMLIVKGERKAEEGKNYVYQGIAERDFERKFQLADYVKVTGASMENGLLHIDLVREIPEAMQPRKIAIGGNNLLESN | not soluble |
| MVRGFYLRFGEGVSEEANRRALALAEALLRAPPPGLLDAVPAYGVLYLEYDPRRLSRGRLLRLLKGLPQERAEEGRVVEIPVRYDGEDLPEVASRLGLSLEAVKALHQKPLYRVYALGFTPGFPFLAEVEPALRLPRKPHPRPRVPAHAVAVAGVQTGIYPLPSPGGWNLLGTSLVAVYDPHRETPFLLRPGDRVRFLEAEGPTPPEPRPLELLPEEPRLPALLVEEPGLMDLVVDGGRFLGGHLGLARSGPLDAPSARLANRLVGNGAGAPLLEFAYKGPVLTALRDLVAAFAGYGFVALLEGEEIPPGQSFLWPRGKTLRFRPRGPGVRGYLAVAGGLEVRPFLGSASPDLRGRIGRPLWAGDVLGLEALRPVRPGRAFPQRPLPEAFRLRLLPGPQFAGEAFRALCSGPFRVARADRVGVELLGPEVPGGEGLSEPTPLGGVQVPPSGRPLVLLADKGSLGGYAKPALVDPRDLWLLGQARPGVEIHFTSG | soluble |
| GSSGSSGMQAGKPILYSYFRSSCSWRVRIALALKGIDYEIVPINLIKDGGQQFTEEFQTLNPMKQVPALKIDGITIVQSLAIMEYLEETRPIPRLLPQDPQKRAIVRMISDLIASGIQPLQNLSVLKQVGQENQMQWAQKVITSGFNALEKILQSTAGKYCVGDEVSMADVCLVPQVANAERFKVDLSPYPTISHINKELLALEVFQVSHPRRQPDTPAELRT | soluble |
| MGSDKIHHHHHHMKIPKRLQPLVDDGLIDDVLQRLKSGKEADVYTVLCGDKIQCAKVYKEAMQRSFKQAVQYQEGRKVRNTRNARAMQKSSKFGRKQQEESWQTAEVEALFRLANAGVRVPQPYICIDGVLLMELVTDVDGAVAPRLSDVILTEESAIADFDTMIRNIVRMLCVGIVHGDLSEFNVLIDAQGPVIIDLPQAVDAAANNHAESMFARDVNNITAYYGQFAPQLLQTRYAQEIWMLYEDGKLTPETALTGLFVEAVHEVDMGSLIDEIIAAEDEFYERQRAKKERDDE | not soluble |
| MHKVLVPFDGSEHAMRALGYVIELSGDLNKPLEVHVLNVQASPIDYSLYLAPDMIDGVKAGLKNEGKRVLDDAIALLAAAGVPFQAHVDLGNVAEQVEAEVQRLGCDAVVMGTRGLGNFGGLLLGSVATRVIHEVSVPVTLIK | not soluble |
| PGRFALVFKDVTDRRRSEEALRESEAMFRSLTEAMPQLVWSARPDGSCDFFNRRWTDCTGASTEMAMGDGWRAFYHPDDQPAIDRLWPKALRTGEHYEIEYRLRHRDGSYRWMLGRGVPVRDEAGGILRWMGTCTDIH | not soluble |
| MAHHHHHHMEFNRSQAAGNGKYVELFAQSYSGPVPKPLPPCTEPTPDEQYRQLMEEKKNEIGEREQRHAENTAGASGSNVDSSNVVGLFSNAATKLRNVAQQVTLKIERASTEVSSATGAAVRQVERQLNVDRFLSNFPELGAMGEILLADYACTAINGGQRVSGHMHITKNYLCFSAPGSSVINQLATAVLKESGVGSDNNPVLGIRQIIPLTEIACILLSVALETVDHRPPFFLPLPASYVRPTGLQIYTTKQQLFQFLAFESIAAKAGSVFTDAVKGLPIQRAYNYLDHAWRASTSVPLPGVNYAS | not soluble |
| MDYNNITEALQAFRTEKAYRHAPLRSCFFDMDGVLFDSMPAHARSWVEAAGECGIAAEPLDFYRWEGQKGSDTIKILFERGYGRLPTEKEIADMYGRKSQLFALYNSGNVIDDAPALVSDVCDRGLRIMLVTGSSQTDILQRLQRSYGDNFSPANMVTGADVHRGKPHPEPYLKALECVGMSPSEAFVVENAPLGVR | not soluble |
